From doi:10.1101/2020.12.09.417477 (bioRxiv, 2020)

Columns and labels:
Assay in all cases: pull-down
His6-Prs = His6-Prs (E. coli, UniProt P0A717 1-315)
His-Prs-K182A = His-Prs-K182A (E. coli, UniProt P0A717 1-315, K182A)
His-Prs-K231A = His-Prs-K231A (E. coli, UniProt P0A717 1-315, K231A)
His-PrsK194A = His-PrsK194A (E. coli, UniProt P0A717 1-315, K194A)

| Binder | binding result (His6-Prs) | binding result (His-Prs-K182A) | binding result (His-Prs-K231A) | binding result (His-PrsK194A) |
| --- | --- | --- | --- | --- |
| CobB (enzyme, E. coli, UniProt P75960 1-279, looked up) MLSRRGHRLSRFRKNKRRLRERLRQRIFFRDKVVPEAMEKPRVLVLTGAGISAESGIRTFRAADGLWEEHRVEDVATPEGFDRDPELVQAFYNARRRQLQQPEIQPNAAHLALAKLQDALGDRFLLVTQNIDNLHERAGNTNVIHMHGELLKVRCSQSGQVLDWTGDVTPEDKCHCCQFPAPLRPHVVWFGEMPLGMDEIYMALSMADIFIAIGTSGHVYPAAGFVHEAKLHGAHTVELNLEPSQVGNEFAEKYYGPASQVVPEFVEKLLKGLKAGSIA | binds | binds | binds | binds |
| acetylated CobB (enzyme, E. coli, UniProt P75960 1-279, looked up, acetyl-lysines (acetylated in vitro with acetyl phosphate); positions are in Supplementary Table 2) MLSRRGHRLSRFRKNKRRLRERLRQRIFFRDKVVPEAMEKPRVLVLTGAGISAESGIRTFRAADGLWEEHRVEDVATPEGFDRDPELVQAFYNARRRQLQQPEIQPNAAHLALAKLQDALGDRFLLVTQNIDNLHERAGNTNVIHMHGELLKVRCSQSGQVLDWTGDVTPEDKCHCCQFPAPLRPHVVWFGEMPLGMDEIYMALSMADIFIAIGTSGHVYPAAGFVHEAKLHGAHTVELNLEPSQVGNEFAEKYYGPASQVVPEFVEKLLKGLKAGSIA | binds | – | – | – |
